Values of other authors, collected in article PMC3114466.
Where “and” joins values, the source holds several entries; their conditions need not be identical. Identical values can stand only once.

Tested on: His
Conditions: free model compound in solution (inferred)

Q: Which pKa does the source give for “Capped histidine model compound (acetyl-histidine-methylamide) (synthetic)” here?
A: Its pKa is 6.42 and 6.92 and 6.53.
